Measurements published in US20250320312A1 (OXITOPE PHARMA B V, published 2025).
Substitutions are numbered along the chain they refer to.

T1: Peptide 4: Biotin-AGGGGSGGGGSGGGGSAAA-Tyr-acid (N-terminal biotin; C-terminal acid)
T1 construct: Control peptide without PC
T1 peptide: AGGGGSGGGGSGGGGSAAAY

T2: Peptide 8: Biotin-AEAAAKEAAAKEAAAKEAAAKAAA-Tyr-acid (N-terminal biotin; C-terminal acid)
T2 construct: Control peptide without PC
T2 peptide: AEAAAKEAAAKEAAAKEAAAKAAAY

B1: PcOxP_DB02_F06 (scFv, V domains shown)
VH: EVQLLESGGGLVQPGGSLRLSCAASGFTFSDEYMEWVRQAPGKGLEWVAASRNKANDFTTEYADSVKGRFTISRDNSKNTLYLQMNSLRAEDTAVYYCARDFYGSSYWYFDVWGQGTLVTVSS
VL: DIVMTQSPDSLAVSLGERATINCTASESIYSSKHKVHYLAWYQQKPGQPPKLLIYGASNRYIGVPDRFSGSGSGTDFTLTISSLQAEDVAVYYCAQFYSYPLTFGGGTKVEIK
notes: scFv in periplasmic extract
B2: PcOxP_DB02_F11 (scFv, V domains shown)
VH: B1 VH with F27T, E32F, A55Y, F58Y, F102Y
VL: B1 VL with I29L, I62P
notes: scFv in periplasmic extract
B3: PcOxP_DB02_G04 (scFv, V domains shown)
VH: B1 VH with E32Y, N53W, F58Y, F102Y
VL: B1 VL with T24K, E27Q, I29V, Y30L, S31Y, H34N, V36K, Y61Q, S99V
notes: scFv in periplasmic extract
B4: PcOxP_DB02_H07 (scFv, V domains shown)
VH: B1 VH with D31S, E32Y, F58Y, F102Y
VL: B1 VL with I29L, I62N, S99T
notes: scFv in periplasmic extract
B5: PcOxP_DB02_G02 (scFv, V domains shown)
VH: B1 VH with T28G, E32F, F58Y, F102Y
VL: B1 VL with I29L, I62S
notes: scFv in periplasmic extract
B6: PcOxP_DB02_H05 (scFv, V domains shown)
VH: B1 VH with E32F, F58Y, F102Y, V112P
VL: B1 VL with I29L, I62L
notes: scFv in periplasmic extract
B7: PcOxP_DB02_F10 (scFv, V domains shown)
VH: B1 VH with E32Q, F58Y, F102Y
VL: B1 VL with A25S, E27Q, I29V, Y30L, K35N, V36K, H37N, I62W
notes: scFv in periplasmic extract
B8: PcOxP_DB02_F09 (scFv, V domains shown)
VH: B1 VH with T28Q, E32F, A55G, D57S, F58Y, E61A, F102Y
VL: B1 VL with I29L, I62S
notes: scFv in periplasmic extract
B9: PcOxP_DB02_H04 (scFv, V domains shown)
VH: B1 VH with F58Y, F102Y
VL: B1 VL with I29L, H37V, S99F
notes: scFv in periplasmic extract
B10: PcOxP_DB02_H08 (scFv, V domains shown)
VH: B1 VH with E32A, F58Y, F102Y, S106H
VL: B1 VL with A25S, E27Q, I29L, K35N, V36K
notes: scFv in periplasmic extract
B11: PcOxP_DB02_G05 (scFv, V domains shown)
VH: B1 VH with E32F, F58Y, F102Y, Y107H
VL: B1 VL with I29L, V36L, A95G
notes: scFv in periplasmic extract
B12: PcOxP_DB02_H06 (scFv, V domains shown)
VH: B1 VH with E32Q, F58Y, F102Y
VL: B1 VL with A25S, I29L, H34N, H37N, S99F
notes: scFv in periplasmic extract

Molecular target: BSA (UniProt P02769)
Sequence (P02769 25-607 limits assumed): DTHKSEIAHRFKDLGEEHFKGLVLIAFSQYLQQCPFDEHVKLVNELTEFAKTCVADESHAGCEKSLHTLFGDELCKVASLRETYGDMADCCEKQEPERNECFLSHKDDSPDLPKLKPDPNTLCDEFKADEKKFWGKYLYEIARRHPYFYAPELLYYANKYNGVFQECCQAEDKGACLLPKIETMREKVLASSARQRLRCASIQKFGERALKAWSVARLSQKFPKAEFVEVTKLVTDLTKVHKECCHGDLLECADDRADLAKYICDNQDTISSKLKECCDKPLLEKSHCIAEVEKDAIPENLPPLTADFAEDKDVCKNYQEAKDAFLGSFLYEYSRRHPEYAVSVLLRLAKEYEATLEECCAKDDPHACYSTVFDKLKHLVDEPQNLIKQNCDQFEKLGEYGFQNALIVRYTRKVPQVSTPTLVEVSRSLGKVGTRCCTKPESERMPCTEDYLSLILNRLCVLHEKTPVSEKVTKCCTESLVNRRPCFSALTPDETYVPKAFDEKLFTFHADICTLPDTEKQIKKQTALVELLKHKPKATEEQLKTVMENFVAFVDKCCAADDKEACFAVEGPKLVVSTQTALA
Experiment: scFv ELISA

Binder	OD450 [OD450]
B1	0.06
B2	0.08
B3	0.11
B4	0.07
B5	0.06
B6	0.09
B7	0.09
B8	0.08
B9	0.06
B10	0.07
B11	0.11
B12	0.07

Molecular target: Peptide 1: Biotin-…-[Tyr(PC)]-acid
Experiment: scFv ELISA

Binder	OD450 [OD450]
B1	0.16
B2	0.23
B3	0.32
B4	0.56
B5	1.01
B6	0.2
B7	0.51
B8	0.39
B9	0.22
B10	0.4
B11	1.49
B12	0.92

Molecular target: Peptide 5: Biotin-…-[Tyr(PC)]-acid
Experiment: scFv ELISA

Binder	OD450 [OD450]
B1	0.45
B2	0.66
B3	0.7
B4	0.88
B5	1.13
B6	0.44
B7	1.2
B8	0.93
B9	0.2
B10	1.34
B11	1.8
B12	1.04

Molecular target: T1, Peptide 4: …
Experiment: scFv ELISA
In short: (§1)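 Bound scFv was read as OD450 after HRP–anti-V5 detection, TMB development and HCl stop. PPE with BSA was incubated 1 h at RT on BSA-blocked wells coated overnight at 4° C. with peptide, or on streptavidin wells loaded 1 h with biotinylated PC-peptides at 1 μg/mL.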

Binder	OD450 [OD450]
B1	0.04
B2	0.04
B3	0.05
B4	0.04
B5	0.04
B6	0.04
B7	0.05
B8	0.04
B9	0.05
B10	0.04
B11	0.05
B12	0.05

Molecular target: T2, Peptide 8: …
Experiment: scFv ELISA
In short: as §1

Binder	OD450 [OD450]
B1	0.04
B2	0.04
B3	0.05
B4	0.05
B5	0.04
B6	0.04
B7	0.04
B8	0.04
B9	0.04
B10	0.06
B11	0.07
B12	0.05
